T1: human MICA ECD (human, UniProt Q29983 24-307)
T1 construct: extracellular domain
T1 sequence (looked up): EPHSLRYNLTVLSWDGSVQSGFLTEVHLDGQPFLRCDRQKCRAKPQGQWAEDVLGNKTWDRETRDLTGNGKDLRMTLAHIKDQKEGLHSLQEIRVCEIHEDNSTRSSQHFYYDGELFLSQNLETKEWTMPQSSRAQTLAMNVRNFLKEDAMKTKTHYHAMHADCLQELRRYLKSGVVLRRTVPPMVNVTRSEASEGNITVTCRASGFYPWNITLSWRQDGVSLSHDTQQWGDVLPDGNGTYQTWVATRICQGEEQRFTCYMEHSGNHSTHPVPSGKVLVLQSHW

B1: α-PDGFRb 1-NKG2D KIH S239D/1332E (bispecific antibody, human IgG1, kappa)
heavy: QVQLQESGPGLVKPSETLSLTCTVSGFSLTNYAINWVRQPPGKGLEWLGIIWTGGGTSYNSALKSRLTISKDTSKNQVSLKLSSVTAADTAVYYCARTGTRGYFFDYWGQGTLVTVSSASTKGPSVFPLAPSSKSTSGGTAALGCLVKDYFPEPVTVSWNSGALTSGVHTFPAVLQSSGLYSLSSVVTVPSSSLGTQTYICNVNHKPSNTKVDKKVEPKSCDKTHTCPPCPAPELLGGPDVFLFPPKPKDTLMISRTPEVTCVVVDVSHEDPEVKFNWYVDGVEVHNAKTKPREEQYNSTYRVVSVLTVLHQDWLNGKEYKCKVSNKALPAPEEKTISKAKGQPREPQVCTLPPSREEMTKNQVSLSCAVKGFYPSDIAVEWESNGQPENNYKTTPPVLDSDGSFFLVSKLTVDKSRWQQGNVFSCSVMHEALHNHYTQKSLSLSPGK
chain: FLNSLFNQEVQIPLTESYCGPCPKNWICYKNNCYQFFDESKNWYESQASCMSQNASLLKVYSKEDQDLLKLVKSYHWMGLVHIPTNGSWQWEDGSILSPNLLTIIEMQKGDCALYASSFKGYIENCSTPNTYICMQRTVGGSGGGSGFLNSLFNQEVQIPLTESYCGPCPKNWICYKNNCYQFFDESKNWYESQASCMSQNASLLKVYSKEDQDLLKLVKSYHWMGLVHIPTNGSWQWEDGSILSPNLLTIIEMQKGDCALYASSFKGYIENCSTPNTYICMQRTVGGGGSGGGGSGGGGSGGGGSPKSSDKTHTCPPCPAPELLGGPDVFLFPPKPKDTLMISRTPEVTCVVVDVSHEDPEVKFNWYVDGVEVHNAKTKPREEQYNSTYRVVSVLTVLHQDWLNGKEYKCKVSNKALPAPEEKTISKAKGQPREPQVYTLPPCRDELTKNQVSLWCLVKGFYPSDIAVEWESNGQPENNYKTTPPVLDSDGSFFLYSKLTVDKSRWQQGNVFSCSVMHEALHNHYTQKSLSLSPGK
light: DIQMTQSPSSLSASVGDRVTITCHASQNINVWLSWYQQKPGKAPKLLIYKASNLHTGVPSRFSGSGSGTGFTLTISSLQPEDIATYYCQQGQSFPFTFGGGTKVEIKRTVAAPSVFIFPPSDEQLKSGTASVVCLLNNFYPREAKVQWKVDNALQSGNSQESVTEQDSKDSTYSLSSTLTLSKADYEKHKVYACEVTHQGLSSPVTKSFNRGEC
notes: The Fc carries S239D/I332E; also called α-PDGFRb 1-NKG2D KIH S239D/I332E; knob-into-hole bispecific antibody
B2: α-PDGFRb 1 S239D/1332E (antibody, human IgG1, kappa, V domains shown)
VH: QVQLQESGPGLVKPSETLSLTCTVSGFSLTNYAINWVRQPPGKGLEWLGIIWTGGGTSYNSALKSRLTISKDTSKNQVSLKLSSVTAADTAVYYCARTGTRGYFFDYWGQGTLVTVSS
VL: DIQMTQSPSSLSASVGDRVTITCHASQNINVWLSWYQQKPGKAPKLLIYKASNLHTGVPSRFSGSGSGTGFTLTISSLQPEDIATYYCQQGQSFPFTFGGGTKVEIKR
notes: also called α-PDGFRb 1 S239D/I332E; exemplary anti-PDGFRb antibody (α-PDGFRb 1)
B3: α-GPC3 1 mIgG2a S239D/1332E (antibody, V domains shown)
VH: QVQLQQSGAELVRPGASVKLSCKASGYTFTDYEMHWVKQTPVHGLKWIGALDPKTGDTAYSQKFKGKATLTADKSSSTAYMELRSLTSEDSAVYYCTRFYSYTYWGQGTLVTVSA
VL: DVVMTQTPLSLPVSLGDQASISCRSSQSLVHSNGNTYLHWYLQKPGQSPKLLIYKVSNRFSGVPDRFSGSGSGTDFTLKISRVEAEDLGVYFCSQNTHVPPTFGSGTKLEIKR
notes: mIgG2a with S239D/I332E; also called α-GPC3 1 mIgG2a S239D/I332E; exemplary anti-GPC3 antibody (α-GPC3 1)

Columns and labels:
human MICA ECD = target: T1, human MICA ECD; experiment: ELISA on human MICA ECD, luminescence
Human PDGFRb ECD [1] = target: T2, Human PDGFRb ECD (human, UniProt P09619 33-532); experiment: ELISA on human PDGFRb ECD, luminescence
T2 construct: extracellular domain; also called recombinant extracellular domain of PDGFRb

Human PDGFRb ECD [2] = target: T2, Human PDGFRb ECD; experiment: direct ELISA on coated recombinant ECD (30 ng/well), HRP-conjugated secondary antibody, luminescence
Method: (§1) Briefly, recombinant extracellular domain of PDGFRb, FAPα, ULBP1, uPAR, IGF1R, SIRPA, PD-L1, ANTXR1, CD248, or GPC3 (30 ng/well) was coated on white optiplate™-384 well HB plate. After overnight coating, standard direct ELISA assay was performed. Luminescence signal was detected after using secondary antibody with HRP conjugated. Binding activity of each antibody was determined based on dose dependent binding curve.

human GPC3 ECD = target: T3, human GPC3 ECD (human, UniProt P51654 25-559, limits assumed); experiment: as above
T3 construct: extracellular domain; also called recombinant extracellular domain of GPC3
Method: as §1

T2 sequence (P09619 33-532): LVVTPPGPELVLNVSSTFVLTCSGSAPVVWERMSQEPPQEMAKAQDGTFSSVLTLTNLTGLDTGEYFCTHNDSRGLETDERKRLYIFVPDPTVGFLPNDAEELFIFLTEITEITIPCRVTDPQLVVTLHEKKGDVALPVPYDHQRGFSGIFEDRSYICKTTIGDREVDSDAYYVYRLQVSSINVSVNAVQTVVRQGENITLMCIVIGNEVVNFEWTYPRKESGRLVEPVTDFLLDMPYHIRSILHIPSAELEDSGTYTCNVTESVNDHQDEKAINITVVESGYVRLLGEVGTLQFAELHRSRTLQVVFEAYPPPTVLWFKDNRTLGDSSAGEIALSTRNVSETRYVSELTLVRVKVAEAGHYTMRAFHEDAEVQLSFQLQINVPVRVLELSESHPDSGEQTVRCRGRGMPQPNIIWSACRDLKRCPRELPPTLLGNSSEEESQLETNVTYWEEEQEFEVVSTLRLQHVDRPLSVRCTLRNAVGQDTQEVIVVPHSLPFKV
T3 sequence (P51654 25-559 limits assumed): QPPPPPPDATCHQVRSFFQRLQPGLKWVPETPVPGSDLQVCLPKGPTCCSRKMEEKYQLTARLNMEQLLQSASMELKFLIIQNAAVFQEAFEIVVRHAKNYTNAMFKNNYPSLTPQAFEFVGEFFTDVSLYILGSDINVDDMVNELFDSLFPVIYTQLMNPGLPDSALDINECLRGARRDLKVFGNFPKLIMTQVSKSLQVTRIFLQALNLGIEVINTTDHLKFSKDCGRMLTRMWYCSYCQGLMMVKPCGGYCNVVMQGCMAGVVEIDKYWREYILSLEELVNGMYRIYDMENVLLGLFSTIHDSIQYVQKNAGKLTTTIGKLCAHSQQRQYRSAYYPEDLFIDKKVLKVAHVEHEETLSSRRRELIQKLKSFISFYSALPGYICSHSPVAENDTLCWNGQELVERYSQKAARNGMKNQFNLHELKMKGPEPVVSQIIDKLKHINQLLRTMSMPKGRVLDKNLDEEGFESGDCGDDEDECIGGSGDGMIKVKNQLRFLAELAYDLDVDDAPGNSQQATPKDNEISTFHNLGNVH

Binder	binding result (human MICA ECD)	EC50 (read off the curve) (Human PDGFRb ECD [1])	EC50 (read off the curve) (Human PDGFRb ECD [2])	EC50 (read off the curve) (human GPC3 ECD)
B1	binds	~0.02 µg/mL		
B2		~0.02 µg/mL	~0.03 µg/mL	
B3				~0.02 µg/mL

From US20240254239A1 (LAEKNA THERAPEUTICS SHANGHAI, published 2024)
